Data published in the supplement of paper PMC10567573.
± gives the standard deviation.

Experiment: protein stability index of a GFP-peptide fusion (GPS, HEK-293T) (PSI 1-6); higher = more stable
[1] = treatment: DMSO, c terminus: a fixed tail appended
[2] = treatment: MLN4924 1 uM, 8 h, c terminus: a fixed tail appended
[3] = treatment: DMSO, c terminus: native
[4] = treatment: MLN4924 1 uM, 8 h, c terminus: native
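Note: 24-mer peptide tiles fused after GFP, lentivirally expressed, FACS-sorted into six equal bins by GFP/DsRed ratio, decoded by Illumina sequencing, PSI is the read-weighted mean bin number.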

Sequence	protein stability index [1]	protein stability index [2]	protein stability index [3]	protein stability index [4]
SKKEGKRQGPKEPPRKSGSFHSSG [PBXIP1]	4.98 ± 0.32	5.2 ± 0.2		
IDIIPNPQERTLTLVDTGIGMTKA [HSP90AB1]	3.55 ± 0.19	3.43 ± 0.51		
VNGDGSRENGNNSSDKVRGIETLE [PHTF1]	5.24 ± 0.32	5.22 ± 0.28		
AWIWHDCHRHYHSMEVFTHYDLLN [LOXL2]	2.41 ± 0.14	3 ± 1.2		
QHKCDECGKSFTQSSGLIRHQRIH [ZSCAN9]	5.26 ± 0.19	5.28 ± 0.12		
EEEEGTRSPTLEPPRGRSEAPDSL [SMG5]	5.44 ± 0.14	5.68 ± 0.25		
NSSGDFSQAHSTLKLANHQRPVSR [TRAF3IP2]	4.43 ± 0.32	4.63 ± 0.38		
ASSGGAGAAVGTGSSYPTTTISYL [JUNB]	2.8 ± 0.34	2.79 ± 0.39		
MKRSKELITKNHSQEETSILRCWK [RNF180]	3.11 ± 0.24	3.19 ± 0.058		
DSKSGGSGSESDHTTRSSLRGPRE [DVL3]	5.31 ± 0.27	5.19 ± 0.22		
YISHRELGDCMRTLGYMPTEMELL [CABP4]	2.27 ± 0.34	2.48 ± 0.43		
TLDQTTSEEAPGGTELIQTPLASS [HDAC6]	5.52 ± 0.22	5.49 ± 0.26		
REESLPNLLQYVRMPLLTPRYITD [KLHL12]	2.8 ± 0.38	2.63 ± 0.34		
DCPMDSSSSRDTDWVVVKEPVIKV [PI4K2A]	3.6 ± 0.4	4 ± 0.53		
VKSRGKRLALEKVPKVGQRFNRIG [PI4K2A]	3.23 ± 0.49	3.46 ± 0.21		
LRLLVESDINSIRRILDELTLCKS [KRT34]	2.22 ± 0.5	2.16 ± 0.12		
VERAAAAAAAAAGGDAGHAPFPPP [C6orf223]	5.08 ± 0.65	5.22 ± 0.4		
IAQYALLGYFIRSWRTLAILVNLQ [SLC22A15]	3.07 ± 0.51	2.78 ± 0.21		
TVNTHYFSIDEELVYENFYADFGP [CDC14A]	2.37 ± 0.28	2.67 ± 0.4		
SEEELAAATTSKEQEPIGTDLDAV [MYBL2]	5.71 ± 0.19	5.58 ± 0.25		
HAPTIHFNYRYFEVEEADGNKQWW [CPOX]	2.66 ± 0.38	2.7 ± 0.29		
KAKKNKDKYVGVSSDSVGGFRYSE [CLINT1]	4.53 ± 0.19	4.58 ± 0.24		
PGGAPRVASRNLFPKDTLMNLHVY [CLPTM1]	2.33 ± 0.24	2.29 ± 0.058		

Sequence	protein stability index [1]	protein stability index [2]	protein stability index [3]	protein stability index [4]
CDPSRIYKPQTRLKRKQPVRKRQ [DFFB]			3.96 ± 0.36	4.15 ± 0.13
LPWQGLKADTLKERYQKIGDTKRA [CSNK1G3]	3.77 ± 0.11	3.76 ± 0.41		
AVKDGLIVETLTVGCKGSKAGIEQ [ZMYND11]	3.57 ± 0.14	3.48 ± 0.22		
SPEIMASVLNGKFANLIKEFVIID [CDC25A]	2.47 ± 0.29	2.23 ± 0.19		
FAVLHWKPPQNPVDTYDVQVTAPG [TNXB]	2.76 ± 0.25	2.68 ± 0.46		
LLADVKGARAALNEIESRHRELLR [STX11]	3.03 ± 0.23	3.3 ± 0.41		
LQIELGKCKAEHDQLLLNYAKKES [LMNB1]	3.29 ± 0.24	3.33 ± 0.33		
VGRGEVVTVRVPTHEEGSYLFWEF [ACBD3]	2.64 ± 0.44	2.34 ± 0.26		
KLPLPVTIKSHLKSFSMANGMNAV [RAB40C]	2.36 ± 0.18	2.46 ± 0.093		
CSRPSGSSSSSGVLMVGPNFRVGK [CSNK1G1]	3.63 ± 0.47	3.74 ± 0.62		
LSRCEFQRAKCKDPQLEIAYRGNC [SMOC2]	3.23 ± 0.42	3.14 ± 0.23		
TILLDGRRVKLQLWDTSGQGRFCT [RAB40B]	2.28 ± 0.22	2.14 ± 0.13		
LLPVQVVTEHPLELIRVEVEILDL [PCDHGC5]	3.02 ± 0.66	3.05 ± 0.85		
RITITESNMKSRYTTEFHELEKIG [WEE1]	3.03 ± 0.37	3.59 ± 0.55		
QERQGPAKPEVLSIQWPGKRSSRR [NECAB1]	4.88 ± 0.21	4.93 ± 0.13		
YIMAFDIKSEDMLKILKPSIPLER [FBXO33]	2.34 ± 0.44	2.67 ± 0.4		
ILGVIGLFTIPLLYRQHQAQIDQY [RTN2]	3.28 ± 0.71	3.1 ± 0.84		
TAPQQKPIGKISKNKKKKLKKKQK [SRPK2]	4.92 ± 0.32	4.84 ± 0.67		
LLSILPSLLGLLSFPRNNISYLVL [JAGN1]	3.155 ± 0.027	3.1 ± 0.43		
TVDCEPSDLFRLQEYNIPGVIQSV [CDS2]	3.01 ± 0.29	3.16 ± 0.25		
MPPATGGGLAESELRPRRGRCGPQ [POMT2]	4.59 ± 0.17	4.61 ± 0.18		
FTGNFFYNYMMGIEFNPRIGKWFD [DHCR7]	2.59 ± 0.57	2.21 ± 0.43		
EECKDRERPMYGRDSAYQSITHYR [EMD]	4.18 ± 0.43	4.13 ± 0.14		

Sequence	protein stability index [1]	protein stability index [2]	protein stability index [3]	protein stability index [4]
SVVDHPMPEERASKYENYFSASER [HESX1]	4.73 ± 0.37	4.76 ± 0.17		
CLSTWLLHFIATNYLIFSQKPEFQ [RHOBTB3]	3.09 ± 0.19	3.22 ± 0.2		
LSRHSKGLQILGHTLRASMRELGL [KCNA4]	2.25 ± 0.21	2.25 ± 0.024		
PEQGVPKSGEGFIDFIGQVHKTKE [PTPRD]	4.6 ± 0.44	5.17 ± 0.5		
LWSLFVPFTVYQVRWLRPVHRQLG [AUP1]	2.82 ± 0.59	2.59 ± 0.69		
LEEELRQLKEEMARHLREYQELLN [PRPH]	3.27 ± 0.11	3.62 ± 0.32		
CTDCGKSFNHNAHLTVHKRIHTGE [ZNF8]	4.54 ± 0.21	4.41 ± 0.21		
CCQWLKPKMRSKEQILELLVLEQF [ZNF449]	2.46 ± 0.51	2.46 ± 0.52		
CTSVNTIYDNAVQGLRRHEILQWV [LRRC59]	2.3 ± 0.17	2.13 ± 0.2		
QEIEDKMKGFSFKEDTLLLIAEVM [C8orf76]	2.54 ± 0.68	2.16 ± 0.44		
CVLVDTGRPIPGTSTRYEQPKCDN [SMOC2]	3.79 ± 0.31	3.77 ± 0.22		
EETKKLANKYLVEDVLLLNFEEMR [KLHL14]	3.23 ± 0.23	3.18 ± 0.27		
VEGEQQAWFGFAGTPGYLSPEVLR [CAMK2A]	3.48 ± 0.21	3.49 ± 0.4		
YRLLKCAPRGKNGFTPLHMAVDKD [FEM1A]	2.84 ± 0.22	2.96 ± 0.14		
GEPGAAAPAMYDDESAIDFSAYID [CEBPD]	5.28 ± 0.21	5.08 ± 0.29		
SDVIEYAKQKLDFFIRTSDSFDKF [PCMTD2]	2.36 ± 0.22	2.48 ± 0.19		
FDALDDYEHHYHTLHGNVCSFCKR [ZNF511]	3.83 ± 0.33	4.19 ± 0.41		
GSAGRLLAVGTDLYGQRNSAPEQE [GFOD1]	4.61 ± 0.44	4.79 ± 0.21		
RKKSKPKKCVKKFVEYCDVNNDKS [SMOC2]	3.52 ± 0.22	3.93 ± 0.58		
SGRTQAQTRRASALIDRPAPYFER [EPB41L3]	3.5 ± 0.56	3.72 ± 0.36		
VDGRLTYPTCGIGYPVSSAFAFQN [SASS6]	2.37 ± 0.23	2.38 ± 0.37		
EVHERNDGIDPFPLLMNRQRVPKV [EFHC1]	3.67 ± 0.31	3.64 ± 0.3		
SDLTLYLVVAVAAVSCVFLAFVIV [PCDHGA10]	2.97 ± 0.61	2.71 ± 0.5		

Sequence	protein stability index [1]	protein stability index [2]	protein stability index [3]	protein stability index [4]
EVVNRKFGNRIKVLRSRIRFIHLV [POMT2]	2.56 ± 0.22	2.43 ± 0.43		
PQEFQKTVSTMYYLWMCSTLALLL [SCAMP3]	2.88 ± 0.47	2.77 ± 0.67		
MAHGYGEESEEERGLEPGKGRHHR [CHGB]	5.22 ± 0.27	5.34 ± 0.11		
EAKNYLLLPQERPLMQGPRTRPRK [KLHL20]	4.25 ± 0.097	4.17 ± 0.058		
YQELLNVKMALDIEIATYRKLLEG [PRPH]	2.22 ± 0.22	2.43 ± 0.081		
QAKPEKAAVAQKPRSHFTTPAPMS [MYBL2]	4.44 ± 0.34	4.39 ± 0.11		
IQSKLGIVSLLLGTIHALIFAWNK [STEAP1]	2.35 ± 0.31	2.22 ± 0.31		
GSEVYRMLREPAEPVAAEPKQSGS [PDLIM4]	5.12 ± 0.25	5.03 ± 0.22		
LKGARLTVEQGCQILDSLSYMRNE [FBXO39]	2.68 ± 0.35	2.85 ± 0.38		
MAGLQRLASHLPVGVMLPHNTTEA [ZC2HC1C]	3.5 ± 0.13	3.36 ± 0.27		
LVSQSNDLSSLRAKYPHDVVNHLS [SPACA9]	3.09 ± 0.19	3.19 ± 0.21		
AIHSSDEGEDQAGDEDEDDEWDD [WAS]			5.06 ± 0.3	5.25 ± 0.29
ELIFSARVLDGKEAKAVGLISHVL [AUH]	2.58 ± 0.92	2.18 ± 0.25		
NAAYFVGKWMKKFPESETKECPFR [SERPINB5]	2.77 ± 0.29	2.98 ± 0.47		
PCASLLAFASTCLLSRFSVGIFHL [TMEM175]	3.43 ± 0.076	3 ± 0.3		
DLVPKQAIQVQEADEAGWGGSGG [DLX1]			2.96 ± 0.75	3.09 ± 0.087
CISKNEWIQFNHPYTEKPRLWHTA [KLHDC2]	2.43 ± 0.48	2.36 ± 0.3		
RAPSERSGPAASEHSHRSHHSLAS [DVL3]	4.68 ± 0.28	4.68 ± 0.21		
VVLTFITPMLNPLIYTLKNAEMKS [OR4A15]	3.22 ± 0.073	2.99 ± 0.63		
KLKPHEEPLRSEILSGKFTILNVR [PTPN9]	3.01 ± 0.14	2.96 ± 0.11		
